Experimental data reported in the supplement of paper PMC10567573.

B1: ZNF263 (parent)
chain: LLRHQRIHTGERPYKCPECGKSFS

Variants of: B1
Assay: protein stability index of a GFP-peptide fusion (GPS, HEK-293T) (PSI 1-6); higher = more stable
Details: c terminus: a fixed tail appended
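Also: lentivirally expressed fusions sorted by FACS into six bins by GFP to DsRed ratio, PSI derived from sequencing read proportions per bin multiplied by bin number.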

Variant | protein stability index
LLRHQRIHTGARPYKCPECGKSFS | 2.26
LLRHQRIHTGCRPYKCPECGKSFS | 1.96
LLRHQRIHTGDRPYKCPECGKSFS | 2.34
LLRHQRIHTGFRPYKCPECGKSFS | 1.56
LLRHQRIHTGGRPYKCPECGKSFS | 2.63
LLRHQRIHTGHRPYKCPECGKSFS | 2.7
LLRHQRIHTGIRPYKCPECGKSFS | 1.78
LLRHQRIHTGKRPYKCPECGKSFS | 2.04
LLRHQRIHTGLRPYKCPECGKSFS | 1.99
LLRHQRIHTGMRPYKCPECGKSFS | 1.99
LLRHQRIHTGNRPYKCPECGKSFS | 2.32
LLRHQRIHTGPRPYKCPECGKSFS | 2.39
LLRHQRIHTGQRPYKCPECGKSFS | 2.51
LLRHQRIHTGRRPYKCPECGKSFS | 3.3
LLRHQRIHTGSRPYKCPECGKSFS | 2.34
LLRHQRIHTGTRPYKCPECGKSFS | 2.51
LLRHQRIHTGVRPYKCPECGKSFS | 2.56
LLRHQRIHTGWRPYKCPECGKSFS | 2.01
LLRHQRIHTGYRPYKCPECGKSFS | 1.88
LLRHQRIHTGEAPYKCPECGKSFS | 2.11
LLRHQRIHTGECPYKCPECGKSFS | 2.48
LLRHQRIHTGEDPYKCPECGKSFS | 1.93
LLRHQRIHTGEEPYKCPECGKSFS | 2.71
LLRHQRIHTGEFPYKCPECGKSFS | 2.65

Variant | protein stability index
LLRHQRIHTGEGPYKCPECGKSFS | 3.4
LLRHQRIHTGEHPYKCPECGKSFS | 2.67
LLRHQRIHTGEIPYKCPECGKSFS | 2.64
LLRHQRIHTGEKPYKCPECGKSFS | 2.43
LLRHQRIHTGELPYKCPECGKSFS | 2.69
LLRHQRIHTGEMPYKCPECGKSFS | 2.08
LLRHQRIHTGENPYKCPECGKSFS | 1.59
LLRHQRIHTGEPPYKCPECGKSFS | 2.52
LLRHQRIHTGEQPYKCPECGKSFS | 2.67
LLRHQRIHTGESPYKCPECGKSFS | 2.11
LLRHQRIHTGETPYKCPECGKSFS | 2.45
LLRHQRIHTGEVPYKCPECGKSFS | 2.91
LLRHQRIHTGEWPYKCPECGKSFS | 1.7
LLRHQRIHTGEYPYKCPECGKSFS | 2.6
LLRHQRIHTGERAYKCPECGKSFS | 3.1
LLRHQRIHTGERCYKCPECGKSFS | 2.16
LLRHQRIHTGERDYKCPECGKSFS | 2.11
LLRHQRIHTGEREYKCPECGKSFS | 2.48
LLRHQRIHTGERFYKCPECGKSFS | 2.01
LLRHQRIHTGERGYKCPECGKSFS | 2.36
LLRHQRIHTGERHYKCPECGKSFS | 1.64
LLRHQRIHTGERIYKCPECGKSFS | 1.87
LLRHQRIHTGERKYKCPECGKSFS | 1.78
LLRHQRIHTGERLYKCPECGKSFS | 2.73

Variant | protein stability index
LLRHQRIHTGERMYKCPECGKSFS | 2.5
LLRHQRIHTGERNYKCPECGKSFS | 2.69
LLRHQRIHTGERQYKCPECGKSFS | 3.02
LLRHQRIHTGERRYKCPECGKSFS | 1.72
LLRHQRIHTGERSYKCPECGKSFS | 2.02
LLRHQRIHTGERTYKCPECGKSFS | 2.56
LLRHQRIHTGERVYKCPECGKSFS | 2.54
LLRHQRIHTGERWYKCPECGKSFS | 2.83
LLRHQRIHTGERYYKCPECGKSFS | 1.89
LLRHQRIHTGERPAKCPECGKSFS | 2.74
LLRHQRIHTGERPCKCPECGKSFS | 3.63
LLRHQRIHTGERPDKCPECGKSFS | 2.24
LLRHQRIHTGERPEKCPECGKSFS | 2.85
LLRHQRIHTGERPFKCPECGKSFS | 2.64
LLRHQRIHTGERPGKCPECGKSFS | 2.34
LLRHQRIHTGERPHKCPECGKSFS | 2.13
LLRHQRIHTGERPIKCPECGKSFS | 2.23
LLRHQRIHTGERPKKCPECGKSFS | 1.59
LLRHQRIHTGERPLKCPECGKSFS | 2.48
LLRHQRIHTGERPMKCPECGKSFS | 2.42
LLRHQRIHTGERPNKCPECGKSFS | 2.39
LLRHQRIHTGERPPKCPECGKSFS | 2.09
LLRHQRIHTGERPQKCPECGKSFS | 2.11
LLRHQRIHTGERPRKCPECGKSFS | 1.94

Variant | protein stability index
LLRHQRIHTGERPSKCPECGKSFS | 1.95
LLRHQRIHTGERPTKCPECGKSFS | 2.25
LLRHQRIHTGERPVKCPECGKSFS | 2.38
LLRHQRIHTGERPWKCPECGKSFS | 2.35
LLRHQRIHTGERPYACPECGKSFS | 2.52
LLRHQRIHTGERPYCCPECGKSFS | 2.16
LLRHQRIHTGERPYDCPECGKSFS | 2.74
LLRHQRIHTGERPYECPECGKSFS | 2.66
LLRHQRIHTGERPYFCPECGKSFS | 2.41
LLRHQRIHTGERPYGCPECGKSFS | 2.62
LLRHQRIHTGERPYHCPECGKSFS | 2.29
LLRHQRIHTGERPYICPECGKSFS | 2.46
LLRHQRIHTGERPYLCPECGKSFS | 1.98
LLRHQRIHTGERPYMCPECGKSFS | 2.15
LLRHQRIHTGERPYNCPECGKSFS | 2.19
LLRHQRIHTGERPYPCPECGKSFS | 1.74
LLRHQRIHTGERPYQCPECGKSFS | 2.46
LLRHQRIHTGERPYRCPECGKSFS | 2
LLRHQRIHTGERPYSCPECGKSFS | 2.48
LLRHQRIHTGERPYTCPECGKSFS | 1.97
LLRHQRIHTGERPYVCPECGKSFS | 2.4
LLRHQRIHTGERPYWCPECGKSFS | 2.03
LLRHQRIHTGERPYYCPECGKSFS | 2.17
LLRHQRIHTGERPYKAPECGKSFS | 3.17

Variant | protein stability index
LLRHQRIHTGERPYKDPECGKSFS | 3.46
LLRHQRIHTGERPYKEPECGKSFS | 3.33
LLRHQRIHTGERPYKFPECGKSFS | 2.48
LLRHQRIHTGERPYKGPECGKSFS | 3.9
LLRHQRIHTGERPYKHPECGKSFS | 3.04
LLRHQRIHTGERPYKIPECGKSFS | 2.77
LLRHQRIHTGERPYKKPECGKSFS | 3.44
LLRHQRIHTGERPYKLPECGKSFS | 2.38
LLRHQRIHTGERPYKMPECGKSFS | 2.36
LLRHQRIHTGERPYKNPECGKSFS | 2.76
LLRHQRIHTGERPYKPPECGKSFS | 3.06
LLRHQRIHTGERPYKQPECGKSFS | 3.2
LLRHQRIHTGERPYKRPECGKSFS | 3.74
LLRHQRIHTGERPYKSPECGKSFS | 2.73
LLRHQRIHTGERPYKTPECGKSFS | 3.4
LLRHQRIHTGERPYKVPECGKSFS | 2.16
LLRHQRIHTGERPYKWPECGKSFS | 3.15
LLRHQRIHTGERPYKYPECGKSFS | 2.12
LLRHQRIHTGERPYKCAECGKSFS | 1.83
LLRHQRIHTGERPYKCCECGKSFS | 2
LLRHQRIHTGERPYKCDECGKSFS | 2.19
LLRHQRIHTGERPYKCEECGKSFS | 2.26
LLRHQRIHTGERPYKCFECGKSFS | 1.94
LLRHQRIHTGERPYKCGECGKSFS | 2.88

Variant | protein stability index
LLRHQRIHTGERPYKCHECGKSFS | 1.8
LLRHQRIHTGERPYKCIECGKSFS | 2.6
LLRHQRIHTGERPYKCKECGKSFS | 2.15
LLRHQRIHTGERPYKCLECGKSFS | 1.91
LLRHQRIHTGERPYKCMECGKSFS | 1.83
LLRHQRIHTGERPYKCNECGKSFS | 2.39
LLRHQRIHTGERPYKCQECGKSFS | 2.78
LLRHQRIHTGERPYKCRECGKSFS | 2.6
LLRHQRIHTGERPYKCSECGKSFS | 1.66
LLRHQRIHTGERPYKCTECGKSFS | 2.38
LLRHQRIHTGERPYKCVECGKSFS | 2.05
LLRHQRIHTGERPYKCWECGKSFS | 1.74
LLRHQRIHTGERPYKCYECGKSFS | 1.39
LLRHQRIHTGERPYKCPACGKSFS | 2.25
LLRHQRIHTGERPYKCPCCGKSFS | 1.86
LLRHQRIHTGERPYKCPDCGKSFS | 1.96
LLRHQRIHTGERPYKCPFCGKSFS | 2.48
LLRHQRIHTGERPYKCPGCGKSFS | 2.3
LLRHQRIHTGERPYKCPHCGKSFS | 2.5
LLRHQRIHTGERPYKCPICGKSFS | 2.42
LLRHQRIHTGERPYKCPKCGKSFS | 2.64
LLRHQRIHTGERPYKCPLCGKSFS | 2.24
LLRHQRIHTGERPYKCPMCGKSFS | 2.46
LLRHQRIHTGERPYKCPNCGKSFS | 2.24

Variant | protein stability index
LLRHQRIHTGERPYKCPPCGKSFS | 2.37
LLRHQRIHTGERPYKCPQCGKSFS | 2.41
LLRHQRIHTGERPYKCPRCGKSFS | 2.41
LLRHQRIHTGERPYKCPSCGKSFS | 2.25
LLRHQRIHTGERPYKCPTCGKSFS | 2.25
LLRHQRIHTGERPYKCPVCGKSFS | 2.15
LLRHQRIHTGERPYKCPWCGKSFS | 3.24
LLRHQRIHTGERPYKCPYCGKSFS | 3.02
LLRHQRIHTGERPYKCPEAGKSFS | 3.18
LLRHQRIHTGERPYKCPEDGKSFS | 3.28
LLRHQRIHTGERPYKCPEEGKSFS | 3.31
LLRHQRIHTGERPYKCPEFGKSFS | 2.12
LLRHQRIHTGERPYKCPEGGKSFS | 3.3
LLRHQRIHTGERPYKCPEHGKSFS | 3.21
LLRHQRIHTGERPYKCPEIGKSFS | 1.81
LLRHQRIHTGERPYKCPEKGKSFS | 3.08
LLRHQRIHTGERPYKCPELGKSFS | 2.15
LLRHQRIHTGERPYKCPEMGKSFS | 2.07
LLRHQRIHTGERPYKCPEPGKSFS | 2.87
LLRHQRIHTGERPYKCPEQGKSFS | 3.3
LLRHQRIHTGERPYKCPERGKSFS | 3.57
LLRHQRIHTGERPYKCPESGKSFS | 2.45
LLRHQRIHTGERPYKCPETGKSFS | 3.42
LLRHQRIHTGERPYKCPEVGKSFS | 3.08

Variant | protein stability index
LLRHQRIHTGERPYKCPEWGKSFS | 1.66
LLRHQRIHTGERPYKCPEYGKSFS | 2.45
LLRHQRIHTGERPYKCPECAKSFS | 2.05
LLRHQRIHTGERPYKCPECCKSFS | 1.87
LLRHQRIHTGERPYKCPECDKSFS | 2.52
LLRHQRIHTGERPYKCPECEKSFS | 1.66
LLRHQRIHTGERPYKCPECFKSFS | 2.99
LLRHQRIHTGERPYKCPECHKSFS | 2.21
LLRHQRIHTGERPYKCPECIKSFS | 1.75
LLRHQRIHTGERPYKCPECKKSFS | 2.27
LLRHQRIHTGERPYKCPECLKSFS | 1.66
LLRHQRIHTGERPYKCPECMKSFS | 2.13
LLRHQRIHTGERPYKCPECNKSFS | 2.35
LLRHQRIHTGERPYKCPECPKSFS | 1.88
LLRHQRIHTGERPYKCPECQKSFS | 1.86
LLRHQRIHTGERPYKCPECRKSFS | 1.79
LLRHQRIHTGERPYKCPECSKSFS | 1.95
LLRHQRIHTGERPYKCPECTKSFS | 2.17
LLRHQRIHTGERPYKCPECVKSFS | 2.42
LLRHQRIHTGERPYKCPECWKSFS | 1.46
